Assay [1] has as its target vacant (non-translating) 70S ribosomes. Put plainly: co-sedimentation.
Assay [2] deals with T1, AscA (YecA), unfused full-length (E. coli, UniProt P0AD05 1-221).
T1 sequence (looked up): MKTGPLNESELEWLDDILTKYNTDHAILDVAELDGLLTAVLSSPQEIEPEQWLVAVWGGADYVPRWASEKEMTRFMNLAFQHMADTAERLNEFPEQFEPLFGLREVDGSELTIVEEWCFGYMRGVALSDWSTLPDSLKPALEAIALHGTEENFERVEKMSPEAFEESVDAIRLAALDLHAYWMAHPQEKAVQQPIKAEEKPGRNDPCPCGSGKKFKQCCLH
Put plainly: MST.

The values that follow come from article doi:10.1101/2020.07.21.215244 (bioRxiv, 2020).

As a reminder, the stoichiometry N is a count of units in the complex or per binding partner. Broadly, the Kd is the free concentration of one partner at which half of the binding sites on the other are occupied at equilibrium, for simple one-to-one binding. A low value points to a tighter complex.

B1: AscA (YecA), unfused full-length (natural protein)
chain: T1 sequence (looked up)
With B1, the stoichiometry N in assay [1] stood at 1.

B2: SecB, fluorescently labelled (NT-647) (natural protein, E. coli, UniProt P0AG86 1-155, looked up)
chain: MSEQNNTEMTFQIQRIYTKDISFEAPNAPHVFQKDWQPEVKLDLDTASSQLADDVYEVVLRVTVTASLGEETAFLCEVQQGGIFSIAGIEGTQMAHCLGAYCPNILFPYARECITSMVSRGTFPQLNLAPVNFDALFMNYLQQQAGEGTEEHQDA
modifications: randomly labelled with NT-647 (NT-647-NHS labelling kit)
For B2, in assay [2], the Kd was about 150 nM.
